T1: full-length Snu66 (recombinant) (S. cerevisiae, UniProt Q12420 1-587)
T1 sequence (looked up): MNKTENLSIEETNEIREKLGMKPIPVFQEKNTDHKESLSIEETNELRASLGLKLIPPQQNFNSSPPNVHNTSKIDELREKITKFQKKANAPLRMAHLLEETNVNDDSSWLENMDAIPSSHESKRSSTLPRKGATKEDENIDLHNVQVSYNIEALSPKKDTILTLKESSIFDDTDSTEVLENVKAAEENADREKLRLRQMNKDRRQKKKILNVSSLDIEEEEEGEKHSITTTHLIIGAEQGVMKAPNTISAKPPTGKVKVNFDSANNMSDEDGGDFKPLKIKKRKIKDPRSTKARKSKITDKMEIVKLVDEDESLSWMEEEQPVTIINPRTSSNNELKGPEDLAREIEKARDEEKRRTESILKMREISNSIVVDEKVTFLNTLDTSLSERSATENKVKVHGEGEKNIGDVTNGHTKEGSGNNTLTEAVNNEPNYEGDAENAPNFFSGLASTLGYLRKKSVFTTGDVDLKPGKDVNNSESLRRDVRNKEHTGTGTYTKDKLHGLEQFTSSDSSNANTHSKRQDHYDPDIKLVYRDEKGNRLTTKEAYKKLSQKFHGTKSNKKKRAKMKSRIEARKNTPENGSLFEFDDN

B1: recombinant 6×His-tagged Hub1 (natural protein, S. cerevisiae)
chain: MIEVVVNDRLGKKVRVKCLAEDSVGDFKKVLSLQIGTQPNKIVLQKGGSVLKDHISLEDYEVHDQTNLELYYL

Key:
[1] = molecular target: T1, full-length Snu66 (recombinant); experiment: ITC
[2] = molecular target: B1; experiment: NMR titration

Binder	Kd [1]	binding result [2]
B1	590 ± 70 nM	
N-terminal 65-amino-acid fragment of Snu66 (domain or fragment, S. cerevisiae, UniProt Q12420 1-65, looked up) MNKTENLSIEETNEIREKLGMKPIPVFQEKNTDHKESLSIEETNELRASLGLKLIPPQQNFNSSP		binds
